# According to the DeepSol protein solubility set:
# Assay: soluble on expression in E. coli; label from the status in PepcDB or PDB records
row,Sequence,soluble on expression in E. coli
1,MDESFDSSVVPGSLTSDDRAIFNEQTLKNGDENSKSSLEVMANCVYLANSTILRERKVIPAEYFQDFQVYGDVSGYTLRQDIPEGRSVSSKLLASHDAIRQKLLQKLAIVVEESLNTNPVETFVWTFVYDSTTSASAEIGYGGRKSKFVVNYLNMDDTAQQFCKMFSELRNVLSLLRPLPRGLIPSMKVAYRGEPEFVPGFQQVDDFVNPEQINLGAVSFPHGNGFQFAYASKFMVEQPSAIRPPVEVSHFEDDLLNSTITPIEVVRDNTMNCAENPELDEIYFSPGRQEVRMDEDVANESIRCNPSMASEMMVLQSEYNVLIADNDEVPMVVERERSPIVKAAKKRSTRAPAVPITPTEPASPVESPVKEQPQKAPKAQMRRSSKRTTKNNERCEQKEEEPIVNPKRRSARRLVPPVEVDEQPEEQNDDDAQNSLQIDSDAQNSLQIDSDAIITSPEKRNESKSAIPEEAADLDNTTSEKQESSTARYGVSNTSINRKKPDPVANPVSEEAQVDLANGSIPDKRPRKRKYGRVSSILDVADLPTDDTVEEDVRESPIYGRVPSILDVARAEENDAQNDAQDAQNEIAVEGLADLSIDTEQHEEAAPINVTGHQSESVPIIVTEHQSEEAQTVVTEQPAGAASVIAAERHYGRVSSILDVAGSFADVDPSGAAPAIATERHYGRVSSILDVAGSLSDVDPQEDTESSTQNQSTSKKFKPNPPKAMRYGQSPNMPSRRGN,not soluble
2,MDEVNVIARITGVSRVRTFERDGREGRFISLDIMDATGSTTYTLWNNDVNLVEELGLKEGDAVKILWAQPRRRDDKVTLTHTSLTRVVPGLEHHHHHH,not soluble
3,MDEYSPKRHDIAQLKFLCETLYHDCLANLEESNHGWVNDPTSAVNLQLNELIEHIATFALNYKIKYNEDNKLIAQIDEYLDDTFMLFSSYGINTQDLQKWRKSGNRLFRCFVNATRANPVSLSCLEHHHHHH,not soluble
4,MDFGALPPEINSTRMYAGAGAAPLMAAGATWNGLAVELSTTASSVESVIMQLTTEQWLGPASMSMVVAAQPYLAWLTYTAESAAHAAAQAMASAAAFEAAFAMTVPPAEVAANRALLAALVATNVLGQNTPAIMATEAHYGEMWAQDALAMYGYAASSAAAGRLNPLITPSQTANMAGLAGQAAAVSHAAAASTVQQVGLGSLISNLPNAVMGFASPLTSAADAAGLGGIIQDIEELLGITFVQNAINGAVNTTAWFVMATIPNAVFLGHAFAALNPATVTAAADAVPAAAAAAGLAHTVTPVGVGGASLTASLGEASSVGGLSVPAGWSTAAPAMTSGTTALEGSGWAVPEEAGPVAAMPGMAGISGAAKGAGAYAGPRYGFKPIVMPKQVVV,not soluble
5,MDGIAEPVIIKDDASRFVFINDAACDLLGKDRNQLIGRTDHDILPGEQADRIVSLDRIVLSTSEGHELEEQITTPDGTQRTLLTKKRCVSIPAGSTQEKFVVVTIVDIT,not soluble
6,MDHQFGYGVEVTGLSPSVTHNDLIDFFSFSGTIQDIDIVRSGEQACTAYVMFKDSYSQETAVLLTGATILDQRVCITRWGQHHEEFDFWNATSRGFEDESDSQHYAQRSEFNAGEAVTKAQEVVKIMLATGFVLGKDALSKAKAFDESHGVSAAAVARVSQLEQRIGLTDKIFTGLEAVRMTDQRYHVSDTAKSAVFATGRTAAAAATSVVNSSYFSSGALWLSGALERAAKAASDLGTRGSRQ,soluble
7,MDHSLNSLNNFDFLARSFARMHAEGRPVDILAVTGNMDEEHRTWFCARYAWYCQQMMQARELELEH,soluble
8,MDHSPWQRCLSVLQEELPAQQFSMWIRPLQCVINDNVMTLYAPNRFVLDWVRDKYVNRINELLTINESNNPLLLRFDVGSKPTIDNSVTNSPVSRNTGGNESLFAKATSAPKVAEPESNIPKKTNVRLNYTFENFVEGKSNQLARAAASQVADNPGTAYNPLFIYGGTGLGKTHLLHAVGNGILLNKPNAKIAYMHSERFVQDMVRALQNNAMEKFKQYYRSVDALLIDDIQFFAGKERTQEEFFHTFNALLEGNQQVILTSDRYPKEINGVDDRLKSRFGWGLTLAIEPPELETRVAILKRKAQESQINLADEVAFFIAKRLRSNVRELEGALNRVIANANFTGRAITIDFVREALRDLLALQDKLVTIDNIQRTVAEYYKIKIADLLSKRRNRSVARPRQIAMALSKELTNHSLPEIGDAFGGRDHTTVLHACRKVKSLREETHDIKEDYSNLIRTLSSLEHHHHHH,not soluble
9,MDIFMTCSICGFTHNCICAHQPNLSSNIEFALLYHENERHKLTNTGKLLLNSLSNTTEYTWQRKEPPQALISKINQADTETWLLFPSKEPVLSSDFHHRHDPSKKQLFVLLDATWQEAKKMVNKSPWLKALPCLEIQTDEASRYHLRRNQSEGNLCTCEAGIEVLEMVKEPENAQALSCYYDQFLTVFQAERSGHKFTSLEHHHHHH,soluble
10,MDIKIAQESFPILVAENIYHCGYHSEKSYGAASYLIQHSQGNILVDSPRFTPPLVKRIEAMGGIKYMYLTHQDDVADHQKFAEHFQCQRILHTDEISAGTRNVEIQLTGLEPFPLQPDVLIIPVPGHTKGHTVLLYKNKFLFTGDHLAWSENRHQLTAFRDVCWYSWAEQIKSMRRLADYSFDWVLPGHGRRFHADVETMRQQMHKCIELMTDERQPLTFNSLEHHHHHH,not soluble
11,MDIKRYCPVTDSELPADHVYFKFRSEIEAAEAYLGLAISEGIKVRETREILDIIDTVYNSLSDPESKLNDFQEKRLNFTEEDWYDIKEKANNGNRWSLYMFLARSAVDSAVYWSYRMKETEEFKEIVKEEMISKLLKAGYVILRESLGEVRL,soluble
12,MDINQNYREAVKTIKEAILRSQYRAATSVNKEQLSLYYGIGRYVSKNSRIGFWGKGAIEQISSLLQKELPGLRGFSTSNIKNMRVFYEEWEPVLNRQPLAGDLVLDEKLLLSVIRQPLADEFNWSDFFSIGFSHHTEIISKAKTLEARLFYIHECAIRYWSKYTLRDYLKADLYSHRGTLPNNFAQTLPDTKQALKAVCSFKDEYLLDFINVEELDEQEEDLDEKIVEKSIVANVKKFIMTFGQDFSFIGNQYRVEVAGEEMFIDLLFFNRELNSLVAVELKSGKFRSSYLGQLNTYLSALDSYVRKPHENPSIGIILCREMNQTFVEFAVRDYNKPMGVATYRTSKDMPERLRNALPDIEELRKLL,not soluble
13,MDIRQLQFFVAIVRFGSFTKAAERLRVAQPAVSMAMKRLEEELDLVLFNRQERKVSLTAEGEIFLRHAEKILEEVASTETEMEELRGLAKGEVRVGIPPMMSAYFFPQIIRDFSNRYPELHLSVSGEGASKIQKMILDGELDMGVIAGASFPDTLELRRFLREEVIVCVPKNHHLAEMERLPLQEFARHPLIFYKEGYYLRELVFDVMRGAGLNPAIRFETNLYTLVKSLIRKGMGISVFLRMVVEEDDDLEAIPLDPPLYLDLQIAWKKYGYLSRANRAFVDFLLEQSARAHQPVGSCPARLVPAG,not soluble
14,MDKFIKQLDPNLDYINHEINDGKCYITVASNRKEVTCPFCGQSSSRIHSTYNRIFQDLPIQGNKVFIIIRNRKMFCDNHDCSHTTFAERFDFISYKAKKTRRLEDEIVRLSINCSSVAASKALKENVVDIGKSTVCNLLKKETLVVDKKTVTVVCIDDFAIKKRKSYGTIMIDIFTHQILDMIDSRDYETVCEWLKTYPNLSVISRDGSVIYNNAIANAHPEALQISDRFHLLKNLTSYITEYLKKRLKPQVLIQAVSQETKEIKTIRQADENRKLTLKEKYEKIKQLLLEGKCKTEICRSLNMDIRAYDKLMAMTAEKREKSFQTKKMIIHEERVKQKMERVNEVRELKGIGLSNREISRRTGLNRKTVSRYLDENFNPVHAAYGKKRNGKLTPYIKAIDEYLEKGIMGSYIEEKIREMGYEGSSSTVRDYITDWKKRRKKYYDKSREDGTKTETIKRENILKLLYQPIEKSKNN,soluble
15,MDKIASDKDLREPDAGLLLNIFDLYYDLASAPAQYAAKRAHILEAAKKASTWHIRHVAPKYKNYVVVIGESARSDYMNVYGFPLPDTPFLSQTKGLLINGYQSTAHATNLSLPQTLGLPGEPNNNIVSLAKQAGFRTAWLSNQGMLGHFANEISTYALRSDYPWFTQRGDYGKSAGLSDRLLLPAFKRVLIGNAGTKPRLIVMHLMGSHSDFCTRLDKDARRFQYQTEKISCYVSTIAQTDKFLEDTVKILNENKESWSLVYFSDHGLMHVGKGGERTLTHGAWKRQSYGVPLVKISSDDTRREMIKVRRSAFNFLRGFGSWTGIETDELPDDGYDFWGNVPDVQGEGNNLAFIDGLPDDPAPWYAGKGKSTKNTSKK,not soluble
16,MDKKPLNTLISATGLWMSRTGTIHKIKHHEVSRSKIYIEMACGDHLVVNNSRSSRTARALRHHKYRKTCKRCRVSDEDLNKFLTKANEDQTSVKVKVVSAPTRTKKAMPKSVARAPKPLENTEAAQAQPSGSKFSPAIPVSTQESVSVPASVSTSISSISTGATASALVKGNTNPITSMSAPVQASAPALTKSQTDRLEVLLNPKDEISLNSGKPFRELESELLSRRKKDLQQIYAEERENYLGKLEREITRFFVDRGFLEIKSPILIPLEYIERMGIDNDTELSKQIFRVDKNFCLRPMLAPNLYNYLRKLDRALPDPIKIFEIGPCYRKESDGKEHLEEFTMLNFCQMGSGCTRENLESIITDFLNHLGIDFKIVGDSCMVYGDTLDVMHGDLELSSAVVGPIPLDREWGIDKPWIGAGFGLERLLKVKHDFKNIKRAARSESYYNGISTNL,soluble
17,MDKKPSILIFIVAYNAESTIENVLMRIPADLLDDFDAEVLVIDDQSSDDTVLRCAETIQSGKIRFKTNVLVNPENQGYGGNQKVGYQYAIEHDFDCVALLHGDGQYAPEYLRDLITPVTKGEAEAVFGSRMMTPFGALKGGMPAYKFVGNKILTLFQNIMLKTSLSEFHSGYRAYSVKALKQIPFHLNTPDFHFDTEIIIQLILWGFRIAERPIPTYYGDEICYVNGLKYALDVVITTTKARMQRLGLFHECKYEVIHPHNSNGYPEAKLSIKSPSGNRILEHHHHHH,not soluble
18,MDKLSLEEKVDLLIENGIRILNKAYALEKKPVDMGHGVLLYPSEFHLIETAGKNPAENLTSISSRLGVTKGAISQMVKKLEKKGLVKKVRVPGNKKDVMLELTDFGREAFEWHKSLHESMEAGIRKELEGMSSSEMETFLRVYGHLERMLDRCMERYR,not soluble
19,MDLFLALRELGRPDQMNLSYLYLKKILEEELRDHDCQCQLNPDFTVTISCRVDGPHGALYIVPNSDFLKSSSFSDLSAFILNLREEIRRFGEFEAELQTGTG,not soluble
20,MDLFRKPKKRNAPVVRKKESSSDEDQDSEVKDVIQKRRRTNPMVQSTKQLDASTRRADNSSDDSDDSDDNQDIAVATHSFAASGDAGPSGPRDQGATATLEVDTDYSHDAQAQFERVQQQLKEGVEKDGKILYKGSALYGAKEAKDTAKGNAASGYNRVGPVRAPQFLRQTVRWDFAPDICKDYKETGFCTFGDSCKFVHDRSDYKHGWEIDEEYEAGKYGAEDDANYEIHEGDDTFPEDCFICGNPFVDPIVTKCKHYFCTGCALKSFQKSSKCPICQQNTENIMNTAKELLTYLKRKKQQQKQEAEKQEEEKDSDDDEKPHECDDHHHHDHEDEPEEPENDSNVPEAEEKSDEEQEIMMEDVEGLEGGENDSESDDDDAEKD,soluble
21,MDMKRRIHLELRNRTPAAVRELVLDNCKAMDGKIEGLTDEFVNLEFLSLISVGLFSVSDLPKLPKLKKLELSENRIFGGLDRLAEELPSLTHLNLSGNNLKDISTLEPLKRLDCLKSLDLFGCEVTNRSDYRETVFRLLPQLSYLDGYDREDQEAPDSDVEVDSVEEAPDSDGEVDGVDKEEEDEEGEDEEEEEDEDGEEEEDEDEEDEDEDEDVEGEDDEDEVSGEEEEFGHDGEVDEDEEDEDEDEDEEEEESGKGEKRKRETDDEGEDD,soluble
